Experimental data taken from patent US20230002480A1.

What was measured:
Assay in all cases: cell-based or functional assay
[1] = target: HIV-1 Env of pseudovirus P0402_c2_11 (HIV-1)
[2] = target: HIV-1 Env of pseudovirus CNE5 (HIV-1)
[3] = target: HIV-1 Env of pseudovirus X1193_c1 (HIV-1)
[4] = target: HIV-1 Env of pseudovirus 191955_A11 (HIV-1)
[5] = target: HIV-1 Env of pseudovirus 3415.v1.c1 (HIV-1)
[6] = target: HIV-1 Env of pseudovirus T250-4 (HIV-1)
[7] = target: HIV-1 Env of pseudovirus Du172.17 (HIV-1)
[8] = target: HIV-1 Env of pseudovirus 235-47 (HIV-1)
[9] = target: HIV-1 Env of pseudovirus T257-31 (HIV-1)
[10] = target: HIV-1 Env of pseudovirus 3817.v2.c59 (HIV-1)
[11] = target: HIV-1 Env of pseudovirus 1006_11_C3_1601 (HIV-1)
[12] = target: HIV-1 Env of pseudovirus X2131_C1_B5 (HIV-1)
[13] = target: HIV-1 Env of pseudovirus 6540.v4.c1 (HIV-1)
[14] = target: HIV-1 Env of pseudovirus ZM53M.PB12 (HIV-1)
[15] = target: HIV-1 Env of pseudovirus Ce1086_B2 (HIV-1)
[16] = target: HIV-1 Env of pseudovirus Ce0393_C3 (HIV-1)
[17] = target: HIV-1 Env of pseudovirus QH0692.42 (HIV-1)
[18] = target: HIV-1 Env of pseudovirus ZM197M.PB7 (HIV-1)
[19] = target: HIV-1 Env of pseudovirus 1394C9G1(Rev-) (HIV-1)
[20] = target: HIV-1 Env of pseudovirus Ce0682_E4 (HIV-1)
[21] = target: HIV-1 Env of pseudovirus 928-28 (HIV-1)
[22] = target: HIV-1 Env of pseudovirus TRO.11 (HIV-1)
[23] = target: HIV-1 Env of pseudovirus HIV-16055-2.3 (HIV-1)
[24] = target: HIV-1 Env of pseudovirus 6480.v4.c25 (HIV-1)
[25] = target: HIV-1 Env of pseudovirus CNE58 (HIV-1)
[26] = target: HIV-1 Env of pseudovirus 231966.c02 (HIV-1)
[27] = target: HIV-1 Env of pseudovirus BJOX025000.01.1 (HIV-1)
[28] = target: HIV-1 Env of pseudovirus 6244_13_B5_4576 (HIV-1)
[29] = target: HIV-1 Env of pseudovirus 6240_08_TA5_4622 (HIV-1)
[30] = target: HIV-1 Env of pseudovirus 62357_14_D3_4589 (HIV-1)
[31] = target: HIV-1 Env of pseudovirus T255-34 (HIV-1)
[32] = target: HIV-1 Env of pseudovirus 3103.v3.c10 (HIV-1)
[33] = target: HIV-1 Env of pseudovirus RHPA4259.7 (HIV-1)

B1: N49P23 (antibody, V domains shown)
VH: QVRLVQSGAGARKTGASMKLSCSTSGYTFTTHHGHFINWVRQARGQGLEWMGWMNPMTGQMNIEGKFQGRVTLTRDIYSDTAYMEMTRLTTGDTGTYYCARGDFGQNYPFHYWGQGSLVIVSS
VL: LSALTQPASVSGSPGQSVTISCSGTNRYLVSWYQQHPDKAPKLIIYDDNKRPSGISDRFSASRPDDTASLTISGLQTGDEATYWCASYERFGGGTRLTVLS
- IC50 [1]: 0.022 µg/mL
- IC80 [1]: 0.065 µg/mL
- MPI [1]: 100
- IC50 [2]: 0.058 µg/mL
- IC80 [2]: 0.226 µg/mL
- MPI [2]: 100
- IC50 [3]: 0.008 µg/mL
- IC80 [3]: 0.038 µg/mL
- MPI [3]: 100
- IC50 [4]: > 50 µg/mL
- IC80 [4]: > 50 µg/mL
- MPI [4]: 31
- IC50 [5]: 0.054 µg/mL
- IC80 [5]: 0.19 µg/mL
- MPI [5]: 100
- IC50 [6]: > 50 µg/mL
- IC80 [6]: > 50 µg/mL
- MPI [6]: 0
- IC50 [7]: > 50 µg/mL
- IC80 [7]: > 50 µg/mL
- MPI [7]: 45
- IC50 [8]: 0.085 µg/mL
- IC80 [8]: 0.749 µg/mL
- MPI [8]: 90
- IC50 [9]: 0.178 µg/mL
- IC80 [9]: 1.17 µg/mL
- MPI [9]: 100
- IC50 [10]: > 50 µg/mL
- IC80 [10]: > 50 µg/mL
- MPI [10]: 41
- IC50 [11]: 0.015 µg/mL
- IC80 [11]: 0.054 µg/mL
- MPI [11]: 100
- IC50 [12]: 0.08 µg/mL
- IC80 [12]: 0.28 µg/mL
- MPI [12]: 100
- IC50 [13]: > 50 µg/mL
- IC80 [13]: > 50 µg/mL
- MPI [13]: 29
- IC50 [14]: 0.135 µg/mL
- IC80 [14]: 0.651 µg/mL
- MPI [14]: 100
- IC50 [15]: 0.063 µg/mL
- IC80 [15]: 0.303 µg/mL
- MPI [15]: 100
- IC50 [16]: > 50 µg/mL
- IC80 [16]: > 50 µg/mL
- MPI [16]: 29
- IC50 [17]: 0.557 µg/mL
- IC80 [17]: 2.51 µg/mL
- MPI [17]: 100
- IC50 [18]: 0.1 µg/mL
- IC80 [18]: 0.385 µg/mL
- MPI [18]: 100
- IC50 [19]: > 50 µg/mL
- IC80 [19]: > 50 µg/mL
- MPI [19]: 34
- IC50 [20]: 1.39 µg/mL
- IC80 [20]: > 50 µg/mL
- MPI [20]: 76
- IC50 [21]: 0.021 µg/mL
- IC80 [21]: 0.122 µg/mL
- MPI [21]: 100
- IC50 [22]: 0.094 µg/mL
- IC80 [22]: 0.336 µg/mL
- MPI [22]: 100
- IC50 [23]: > 50 µg/mL
- IC80 [23]: > 50 µg/mL
- MPI [23]: 17
- IC50 [24]: > 50 µg/mL
- IC80 [24]: > 50 µg/mL
- MPI [24]: 29
- IC50 [25]: > 50 µg/mL
- IC80 [25]: > 50 µg/mL
- MPI [25]: 9
- IC50 [26]: 0.035 µg/mL
- IC80 [26]: 0.158 µg/mL
- MPI [26]: 100
- IC50 [27]: > 50 µg/mL
- IC80 [27]: > 50 µg/mL
- MPI [27]: 0
- IC50 [28]: 0.151 µg/mL
- IC80 [28]: 0.57 µg/mL
- MPI [28]: 100
- IC50 [29]: 0.215 µg/mL
- IC80 [29]: 1 µg/mL
- MPI [29]: 100
- IC50 [30]: 0.057 µg/mL
- IC80 [30]: 0.76 µg/mL
- MPI [30]: 95
- IC50 [31]: > 50 µg/mL
- IC80 [31]: > 50 µg/mL
- MPI [31]: 20
- IC50 [32]: 43.8 µg/mL
- IC80 [32]: > 50 µg/mL
- MPI [32]: 54
- IC50 [33]: 0.01 µg/mL
- IC80 [33]: 0.04 µg/mL
- MPI [33]: 100

B2: N49P22 (antibody, V domains shown)
V domain 1: HIQLLQSGPQVKKSGDTVRISCETSGYNFVDSRIHWVRQTPEKRLRWMGWINPLQGGVNYAPEFQGRIRMTRDTFIDTVYVDLSGLTPADTAYYYCARGIDGKSYPFHFWGHGTRVTVFS
V domain 2: RFALTQPASVSGSPGQTITITCAGGSVSWFHFPPGKTPRLIIYESSKRPSGVSPRFSGSQSGSTASLIISGLQSDDEGTYFCSILEFFGRGTLVTVLS
- IC50 [1]: 5.93 µg/mL
- IC80 [1]: > 50 µg/mL
- MPI [1]: 73
- IC50 [2]: 0.281 µg/mL
- IC80 [2]: 1.55 µg/mL
- MPI [2]: 96
- IC50 [3]: 3.49 µg/mL
- IC80 [3]: 28.5 µg/mL
- MPI [3]: 85
- IC50 [4]: > 50 µg/mL
- IC80 [4]: > 50 µg/mL
- MPI [4]: 9
- IC50 [5]: 0.198 µg/mL
- IC80 [5]: 1.41 µg/mL
- MPI [5]: 96
- IC50 [6]: > 50 µg/mL
- IC80 [6]: > 50 µg/mL
- MPI [6]: 5
- IC50 [7]: > 50 µg/mL
- IC80 [7]: > 50 µg/mL
- MPI [7]: 4
- IC50 [8]: 0.037 µg/mL
- IC80 [8]: 0.373 µg/mL
- MPI [8]: 99
- IC50 [9]: > 50 µg/mL
- IC80 [9]: > 50 µg/mL
- MPI [9]: 43
- IC50 [10]: > 50 µg/mL
- IC80 [10]: > 50 µg/mL
- MPI [10]: 12
- IC50 [11]: 0.898 µg/mL
- IC80 [11]: 14.7 µg/mL
- MPI [11]: 83
- IC50 [12]: > 50 µg/mL
- IC80 [12]: > 50 µg/mL
- MPI [12]: 44
- IC50 [13]: > 50 µg/mL
- IC80 [13]: > 50 µg/mL
- MPI [13]: 29
- IC50 [14]: 1.2 µg/mL
- IC80 [14]: 11.8 µg/mL
- MPI [14]: 91
- IC50 [15]: > 50 µg/mL
- IC80 [15]: > 50 µg/mL
- MPI [15]: 0
- IC50 [16]: > 50 µg/mL
- IC80 [16]: > 50 µg/mL
- MPI [16]: 12
- IC50 [17]: 0.592 µg/mL
- IC80 [17]: 2.02 µg/mL
- MPI [17]: 100
- IC50 [18]: 2.58 µg/mL
- IC80 [18]: 25.1 µg/mL
- MPI [18]: 84
- IC50 [19]: > 50 µg/mL
- IC80 [19]: > 50 µg/mL
- MPI [19]: 35
- IC50 [20]: 1.13 µg/mL
- IC80 [20]: > 50 µg/mL
- MPI [20]: 75
- IC50 [21]: > 50 µg/mL
- IC80 [21]: > 50 µg/mL
- MPI [21]: 32
- IC50 [22]: 0.283 µg/mL
- IC80 [22]: 1.36 µg/mL
- MPI [22]: 99
- IC50 [23]: 4.66 µg/mL
- IC80 [23]: 39.7 µg/mL
- MPI [23]: 83
- IC50 [24]: 0.809 µg/mL
- IC80 [24]: 32.1 µg/mL
- MPI [24]: 86
- IC50 [25]: 28.4 µg/mL
- IC80 [25]: > 50 µg/mL
- MPI [25]: 57
- IC50 [26]: 3.35 µg/mL
- IC80 [26]: > 50 µg/mL
- MPI [26]: 69
- IC50 [27]: > 50 µg/mL
- IC80 [27]: > 50 µg/mL
- MPI [27]: 0
- IC50 [28]: 0.565 µg/mL
- IC80 [28]: 2.48 µg/mL
- MPI [28]: 97
- IC50 [29]: 2.33 µg/mL
- IC80 [29]: 9.76 µg/mL
- MPI [29]: 93
- IC50 [30]: > 50 µg/mL
- IC80 [30]: > 50 µg/mL
- MPI [30]: 13
- IC50 [31]: 38.8 µg/mL
- IC80 [31]: > 50 µg/mL
- MPI [31]: 55
- IC50 [32]: > 50 µg/mL
- IC80 [32]: > 50 µg/mL
- MPI [32]: 16
- IC50 [33]: 0.637 µg/mL
- IC80 [33]: 5.6 µg/mL
- MPI [33]: 92
